Assay results published in article PMC6497099, “Structural basis for oligomerization of the prokaryotic peptide transporter PepTSo2” (Acta Crystallographica. Section F, Structural Biology …, 2019).

Key:
[1] = target: the molecule itself; assay: SEC; fluorescence-detection SEC (FSEC) of the DDM-solubilised supernatant of E. coli cells mixed with the His tag-specific probe P3NTA (excitation 482 nm, emission 520 nm)
[2] = target: the molecule itself; assay: SEC; purified PepTSo2 in DDM-containing buffer, Superose 6 Increase column, tryptophan fluorescence (excitation 280 nm, emission 350 nm)

B1: C-terminally His6-tagged full-length PepTSo2 (tag kept, FSEC screening) (natural protein, S. oneidensis)
chain: MTLGTNQVSKTHSFMTVSLIELWERFGYYGMQALIVYFMVQRLGFDDSRANLVWSACAALIYVSPAIGGWVGDKILGTKRTMLLGAGILSVGYALMTVPTENTWFMFSALGVIVVGNGLFKPNAGNLVRKIYEGDDSKIDSAFTIYYMAVNVGSTFSMLLTPWIKDYVNAQYGNEFGWHAAFAVCCVGILVGLGNYALMHKSLANYGSEPDTRPVNKKSLAIVLALAALSVVASAIILEYEDVARVFVYAAGVAVLGIFFHLIRTSEPSERAGLIAALILTVQTVFFFIFYQQMSTSLALFALRNVDWDFQVFGTHLWTWSPAQFQALNPIWIMVLSPVLAWSYSWAGRNNKDFSIAAKFALGFAVVAIGFFIYGFAGQFAVNGKTSSWVMIWGYASYSLGELLVSGLGLAMIARYVPARMGGFMMGAYFVASGISQYLGGVVANFASVPQDLVDPLQTLPVYTNLFNKLGVAAVVCTIIALAVLPLMRRLTESHHAHSSIENNAAASLRDVKAEQLESSGENLYFQGQFTSSV
notes: full-length PepTSo2, Shewanella oneidensis, UniProt Q8EHE6; cloning artifact with the TEV protease site, between PepTSo2 and the His6 tag (not cleaved in this experiment); Detected in FSEC by the histidine tag-specific fluorescent probe P3NTA; also called His6-tagged PepTSo2; His6 construct; source: E. coli Rosetta 2 (DE3) or C41 (DE3) with pRARE, DDM-solubilised supernatant of disrupted cells; …
stoichiometry N [1]: 4

B2: PepTSo2 from Shewanella oneidensis, purified, His6 tag cleaved by TEV protease (natural protein, S. oneidensis)
chain: MTLGTNQVSKTHSFMTVSLIELWERFGYYGMQALIVYFMVQRLGFDDSRANLVWSACAALIYVSPAIGGWVGDKILGTKRTMLLGAGILSVGYALMTVPTENTWFMFSALGVIVVGNGLFKPNAGNLVRKIYEGDDSKIDSAFTIYYMAVNVGSTFSMLLTPWIKDYVNAQYGNEFGWHAAFAVCCVGILVGLGNYALMHKSLANYGSEPDTRPVNKKSLAIVLALAALSVVASAIILEYEDVARVFVYAAGVAVLGIFFHLIRTSEPSERAGLIAALILTVQTVFFFIFYQQMSTSLALFALRNVDWDFQVFGTHLWTWSPAQFQALNPIWIMVLSPVLAWSYSWAGRNNKDFSIAAKFALGFAVVAIGFFIYGFAGQFAVNGKTSSWVMIWGYASYSLGELLVSGLGLAMIARYVPARMGGFMMGAYFVASGISQYLGGVVANFASVPQDLVDPLQTLPVYTNLFNKLGVAAVVCTIIALAVLPLMRRLTESHHAHSSIENNAAASLRDVKAEQLESSGENLYFQ
notes: full-length PepTSo2, Shewanella oneidensis, UniProt Q8EHE6; Detergent-solubilised (DDM) for SEC; in Salipro nanoparticles (saposin A, DMPG) for cryo-EM; in monoolein lipidic cubic phase for crystals; also called tetrameric PepTSo2; purified PepTSo2; source: E. coli Rosetta 2 (DE3), purified (DDM solubilisation, Ni-NTA, TEV cleavage, second Ni-NTA, SEC); not shown: His6, C-terminal, cleaved
stoichiometry N [2]: 4
